From patent publication US20200230253A1

How the values were obtained:
[1] = biological target: mannose phosphate 6 receptor (M6PR), immobilized on a CM5 chip; experiment: SPR (BIACORE T200), M6PR immobilized on CM5 chip by amine coupling, analyte 200 nM to 12.5 nM in HBS-EP
[2] = biological target: mannose phosphate 6 receptor (M6PR), immobilized on a CM5 chip; experiment: SPR, M6PR immobilized; the reference itself
[3] = biological target: mannose phosphate 6 receptor (M6PR) expressed on HepG2 cells (human); experiment: cell-based or functional assay
[4] = biological target: mannose phosphate 6 receptor (M6PR), immobilized on a CM5 chip; experiment: SPR (BIACORE T200), M6PR immobilized on CM5 chip by amine coupling
[5] = biological target: mannose phosphate 6 receptor (M6PR), immobilized on a CM5 chip; experiment: SPR, M6PR immobilized; relative to iduronate-2-sulfatase

| kon [1] [M⁻¹ s⁻¹] | relative binding affinity from KD (% of iduronate-2-sulfatase) [2] [%] | relative ka (% of iduronate-2-sulfatase) [2] [%] | relative kd (% of iduronate-2-sulfatase) [2] [%] | intracellular absorption activity (Vmax), HepG2 cells, 24 h at 37 C, ELISA of cell content [3] | Kd [4] [nM] | koff [4] [s⁻¹] | relative binding affinity from KD (% of iduronate-2-sulfatase) [5] [%] | relative ka (% of iduronate-2-sulfatase) [5] [%] | relative kd (% of iduronate-2-sulfatase) [5] [%] | intracellular absorption activity relative to iduronate-2-sulfatase [3] [%] | kon [4] [M⁻¹ s⁻¹] | Molecule |
| --- | --- | --- | --- | --- | --- | --- | --- | --- | --- | --- | --- | --- |
| 136000 | 100 | 100 | 100 | 9.5 nM | 29.1 | 0.00395 | – | – | – | – | – | iduronate-2-sulfatase (Elaprase manufactured by Shire) (from UniProt P22304 26-550) (enzyme) |
| – | – | – | – | 10.8 ng/mL | 33.1 | 0.00307 | 88 | 67 | 78 | 81.4 | 92000 | long-acting iduronate-2-sulfatase conjugate (protein, part only; not given: Immunoglobulin Fc and PEG linker, human, UniProt P22304 26-550, looked up, not shown: a dimerising Fc or GST, N-terminus linked through a 10 kDa polyethylene glycol linker (from ALD-PEG-ALD, reductive amination) to the N-terminal proline of one chain of the immunoglobulin Fc) SETQANSTTDALNVLLIIVDDLRPSLGCYGDKLVRSPNIDQLASHSLLFQNAFAQQAVCAPSRVSFLTGRRPDTTRLYDFNSYWRVHAGNFSTIPQYFKENGYVTMSVGKVFHPGISSNHTDDSPYSWSFPPYHPSSEKYENTKTCRGPDGELHANLLCPVDVLDVPEGTLPDKQSTEQAIQLLEKMKTSASPFFLAVGYHKPHIPFRYPKEFQKLYPLENITLAPDPEVPDGLPPVAYNPWMDIRQREDVQALNISVPYGPIPVDFQRKIRQSYFASVSYLDTQVGRLLSALDDLQLANSTIIAFTSDHGWALGEHGEWAKYSNFDVATHVPLIFYVPGRTASLPEAGEKLFPYLDPFDSASQLMEPGRQSMDLVELVSLFPTLAGLAGLQVPPRCPVPSFHVELCREGKNLLKHFRFRDLEEDPYLPGNPRELIAYSQYPRPSDIPQWNSDKPSLKDIKIMGYSIRTIDYRYTVWVGFNPDEFLANFSDIHAGELYFVDSDPLQDHNMYNDSQGGDLFQLLMP |
